# Target: recombinant Myodes glareolus IFN-γ (recMgIFN-γ) (Myodes glareolus (bank vole))
# Experiment: SEC; analytical gel filtration of 200 µl purified recMgIFN-γ in PBS at room temperature on a calibrated Superdex 75 10/300 GL column, flow rate 0.75 ml/min; detection at 230 and 260 nm
substance,measurement,value
recombinant Myodes glareolus IFN-γ (recMgIFN-γ) (natural protein),stoichiometry N,2

# — article PMC5809609
